This test addresses myristylated PKA-Cα K7C (mouse, UniProt P05132 1-351, K7C, N-terminal myristylation). The experiment in a line: SPR.

B1: phosphorylated SMO IFR→AAA (I573A, F577A, R580A; FLAG-tagged mouse SMO 64-674) in nanodiscs (receptor)
chain: LLSHCGRAAHCEPLRYNVCLGSALPYGATTTLLAGDSDSQEEAHGKLVLWSGLRNAPRCWAVIQPLLCAVYMPKCENDRVELPSRTLCQATRGPCAIVERERGWPDFLRCTPDHFPEGCPNEVQNIKFNSSGQCEAPLVRTDNPKSWYEDVEGCGIQCQNPLFTEAEHQDMHSYIAAFGAVTGLCTLFTLATFVADWRNSNRYPAVILFYVNACFFVGSIGWLAQFMDGARREIVCRADGTMRFGEPTSSETLSCVIIFVIVYYALMAGVVWFVVLTYAWHTSFKALGTTYQPLSGKTSYFHLLTWSLPFVLTVAILAVAQVDGDSVSGICFVGYKNYRYRAGFVLAPIGLVLIVGGYFLIRGVMTLFSIKSNHPGLLSEKAASKINETMLRLGIFGFLAFGFVLITFSCHFYDFFNQAEWERSFRDYVLCQANVTIGLPTKKPIPDCEIKNRPSLLVEKINLFAMFGTGIAMSTWVWTKATLLIWRRTWCRLTGHSDDEPKRIKKSKMAAKAASKARELLQNPGQELSFSMHTVSHDGPVAGLAFDLNEPSADVSSAWAQHVTKMVARRGAILPQDVSVTPVATPVPPEEQANMWLVEAEISPELEKRLG
modifications: GRK2/3-phosphorylated; mapped sites pS560, pS594, pT597, pS599, pS615, pS642, pT644, pT648
B1 displayed a Kd of 222 nM.

In general, Kd refers to the free concentration of one partner at which half of the binding sites on the other are occupied at equilibrium, for simple one-to-one binding. Higher therefore signals lower affinity.

Source of the values: paper PMC11565934 (bioRxiv, 2024).
